Data: patent US5679641A, “Peptides of human P53 protein for use in human T cell response inducing compositions, and human P53 protein-specific cytotoxic t-lymphocytes” (Rijksuniversiteit Leiden, priority 1992, dated 1997)
No end group written: not given here.

Experiments:
HLA-A2.1 molecule = target: T1, HLA-A2.1 molecule (Homo sapiens, UniProt P04439, D140Y/D185E/D98H/E176V/E277Q/G131W/G231S/I119V/I121R/I166T/I218V/L300P/L318F/N151K/N90K/P208A/P217A/Q86G/Q94H/R138H/R169H/T345S); assay: Peptide binding: upregulation of HLA-A2.1 expression on (174.CEM) T2 cells, FACScan; format: cell-based; details: for fluorescence ratio (i.e. binding ability): 200 μg/ml peptide, 16 hours at 37° C., (174.CEM) T2 cells, antibody BB7.2, mean fluorescence with peptide divided by without, positive when ratio of 1.2 is reached
T1 construct: endogenous in cells; host or cells: 174.CEM T2 (antigen-processing-defective human T x B hybrid cell line, provided by P. Cresswell)

HLA-A2.1 positive PBL = assay: Induction of primary in vitro CTL response with peptide loaded 174CEM.T2 cells, cloning of CTL; format: cell-based, human; details: peptide loaded antigen processing defective cell line 174.CEM T2, peptide 80 μg/ml, PBL of healthy HLA-A2.1 positive donor
Protocol: Responder T cells are included in mononuclear white blood cells (PBL) of an HLA-A2.1 positive healthy donor. The PBL were separated from a buffycoat by Ficoll procedure (LYMPHOPREP of Nycomed-pharma, Oslo, Norway, cat. no. 105033) and washed two times in RPMI 1640 (Gibco Paislan, Scotland, cat. no. 041-02409) supplemented with 30% pooled human serum (tested for its capacity to support mixed lymphocyte cultures), 2 mM glutamine (ICN Biochemicals, Inc., Costa Mesa, Calif., USA, cat. no. 15-801-55), penicillin (100 IU/ml, Brocades Pharma, Leiderdorp, The Netherlands), kanamycin ([…], Sigma, St. Louis, Mo., USA).
174CEM.T2 (T2) cells in a concentration of 2×10^6 per ml were incubated for 13 hours at 37° C. in a T25 flask (Falcon, Becton & Dickinson, Plymouth, England, cat. no. 3013) in serum-free ISCOVE's medium (Biochrom KG, Seromed, Berlin, Gemany, cat. no. F0465) with glutamine (2 mM, ICN Biochemicals Inc., Costa Mesa, Calif., USA, cat. no. 15-801-55) and antibiotics as mentioned under 2 and individual p53 peptides at a final concentration of 80 μg/ml. Subsequently the T2 cells were spun down and treated at a density of 20×10^6 cells/ml with Mitomycin C (final concentration 50 μg/ml) in serum-free RPMI 1640 (manufacturer see 2) medium during one hour at 37° C. Thereafter the T2 cells were washed three times in RPMI 1640. […]

fluorescence ratio (i.e. binding ability) (HLA-A2.1 molecule)	binding to HLA-A2.1 molecule (in words) (HLA-A2.1 molecule; 174.CEM T2 cells, mean HLA-A2.1 fluorescence)	Molecule	primary in vitro human CTL response against the peptide (HLA-A2.1 positive PBL)
1.7	strong ability to bind to HLA-A2.1	LLPENNVLS [compound 3, residues 25-33 of human p53]	possible so far to generate a primary in vitro human CTL response
1.4		CSCC[C@H](NC(=O)[C@H](CCCCN)NC(=O)[C@H](CC(N)=O)NC(=O)[C@H](CC(C)C)NC(=O)[C@H](C)N)C(=O)N[C@@H](Cc1ccccc1)C(=O)N[C@@H](CS)C(=O)N[C@@H](CCC(N)=O)C(=O)N[C@@H](CC(C)C)C(=O)N[C@@H](C)C(=O)O [compound 11, ALNKMFCOLA]	
1.2		ALNKMFYQL [compound 27]	
1.3		KLFCQLAXT (KLFCQLAKT) [compound 29, residues 132-140 of human mp53 (mutant p53)]	
